The values below come from publication PMC4132731, “Crystal structure of RNase H3–substrate complex reveals parallel evolution of RNA/DNA hybrid recognition”.

This data set has as its target T1, Ta-RNase H3 D78N (Thermovibrio ammonificans, UniProt E8T217 1-270, D78N).
T1 sequence: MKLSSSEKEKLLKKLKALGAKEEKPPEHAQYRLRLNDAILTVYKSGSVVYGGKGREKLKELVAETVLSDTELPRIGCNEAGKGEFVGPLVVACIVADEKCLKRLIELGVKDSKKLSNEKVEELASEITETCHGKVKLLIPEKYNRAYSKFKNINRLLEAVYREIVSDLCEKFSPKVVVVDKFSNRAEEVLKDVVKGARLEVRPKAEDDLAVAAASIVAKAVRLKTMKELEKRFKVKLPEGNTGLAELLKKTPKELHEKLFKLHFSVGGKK
Kind of data set: X-ray crystallography (2.1 A); Mg2+ (metal ion A only); sulfate; EMSA: 10% native TAE polyacrylamide gel, binding buffer not given in the material; crystals: 0.2 M ammonium sulfate, 0.1 M BisTris pH 5.5, 25% PEG 3350, 10 mM spermine tetrahydrochloride, protein:substrate 1:1.2. As to conditions: protein: recombinant; tags: N-terminal His-SUMO tag removed with SENP; extra N-terminal Ser0 before Met1 (cloning artifact); blunt. A general note: Mobility shift assays separate free from complexed probe on a gel.

B1: 19-bp RNA/DNA hybrid (DNA:RNA)
RNA: GAGUGCGACACCUGAUUCC
DNA: GGAATCAGGTGTCGCACTC
On to B1, for which the binding result was “binds”.
